Results as given in IntAct's records for PubMed 19494831.

B1: Polycomb protein Sfmbt (Drosophila melanogaster (Fruit fly)), Q9VK33 (parent)
chain: MNPSELRMMWMSSQYNSERITLEDAATLLGHPTVGLSVMEDLSAHQPTLDMNPMMSLMGGDFTGQAAATAAALGVQPGTLIATNSNNLYGFAHMGGLQQQLLQQSAAAAVFQNYAEAMDNDVENGMVGMAMEAVVDDDDQVYGQRDNNFDDNGSELEPKQEIINIDDFVMMNEDNNSYDGTDFMTSSDKDISQSSSSCMAQMPGSLGVPGVEHDLLVPLPDGLLHHKLLGTTLVPAMGTLNGNAFGNIMVSTENTSSKQMQRTYSTAKGANSTATTATCSASTSSALRSQRKTRKIEPVNRPGLVLKTPIAYRGNIDPSVIPIQKDGMAVCKRCGAIGVKHTFYTKSRRFCSMACARGELYSLVLNTKMEGDQATTSSPDPGAGSESADLPGDQQQSQSDIELDLHAAHIKNANYRFRITDQSKITQLNSFGEPMSMGGDAAANNVQMAADETIAALNGGAVGDATAPGSTEEGASTPNSYLSAAPTPKALRLFKDIYPQDDLPQIPKYERLPVPCPQMEKIISIRRRMYDPTHSYDWLPRLSKENFNAAPVTCFPHAPGCEVWDNLGVGMKVEVENTDCDSIEVIQPGQTPTSFWVATILEIKGYKALMSYEGFDTDSHDFWVNLCNAEVHSVGWCATRGKPLIPPRTIEHKYKDWKDFLVGRLSGARTLPSNFYNKINDSLQSRFRLGLNLECVDKDRISQVRLATVTKIVGKRLFLRYFDSDDGFWCHEDSPIIHPVGWATTVGHNLAAPQDYLERMLAGREAMIEVHEDDATIELFKMNFTFDEYYSDGKTNSFVEGMKLEAVDPLNLSSICPATVMAVLKFGYMMIRIDSYQPDASGSDWFCYHEKSPCIFPAGFCSVNNISVTPPNGYDSRTFTWEGYLRDTGAVAAGQHLFHRIIPDHGFEVGMSLECADLMDPRLVCVATVARVVGRLLKVHFDGWTDEYDQWLDCESADIYPVGWCVLVNHKLEGPPRVAHQQAPKPAPKPKIQRKRKPKKGAAGGKTPTDNNTQSVKSRTIALKTTPHLPKLSIKLELKPEHHNAAFYENNQPEEEGDEEDPDADGDGDGSTSHISEQSTTQSSSDLIAGSGSGSGSASLVTLATGSNKTNSSATNNKYIPRLADIDSSEPHLELVPDTWNVYDVSQFLRVNDCTAHCDTFSRNKIDGKRLLQLTKDDIMPLLGMKVGPALKISDLIAQLKCKVNPGRARSHKTNKSPFL

Variants of: B1
Conditions: with h33_human H3-3A

Row | effect of a mutation on the interaction | Variant
1 | decreasing interaction | D808A

Variants of: B1
Conditions: with h4_human H4C16, P62805

Row | effect of a mutation on the interaction | Variant
2 | decreasing interaction | D808A

Variants of: B1
Conditions: with h4_human H4C16, P62805
Remark: another data set of the same source

Row | effect of a mutation on the interaction | Variant
3 | decreasing interaction | E947A
4 | decreasing interaction | Y948F

Variants of: B1
Conditions: with h4_human H4C16, P62805
Remark: another data set of the same source

Row | effect of a mutation on the interaction | Variant
5 | disrupting interaction | E947A
6 | disrupting interaction | Y948F

Variants of: B1
Conditions: with h4_human H4C16, P62805
Remark: another data set of the same source

Row | effect of a mutation on the interaction | Variant
7 | decreasing interaction | D697A

Variants of: B1
Conditions: with h33_human H3-3A
Remark: another data set of the same source

Row | effect of a mutation on the interaction | Variant
8 | increasing interaction | D697A

Variants of: B1
Conditions: with h4_human H4C16, P62805
Remark: another data set of the same source

Row | effect of a mutation on the interaction | Variant
9 | disrupting interaction | D917A

Variants of: B1
Conditions: with h33_human H3-3A
Remark: another data set of the same source

Row | effect of a mutation on the interaction | Variant
10 | disrupting interaction | D917A
